In the supplement of paper PMC7125110:
± gives the standard error. For some of these results: Fewer inactive variants are shown than the library holds.

B1: glmS ribozyme (parent)
chain: AUAAAAGCGCCAGAACUACAGAAAUGUAGUUGACGAGGAGGAGGUUUAUCGAAUUUUCGGCGGAUGCCUCCAAA

Key:
Details in all cases: with glucosamine-6-phosphate
glucosamine-6-phosphate [1] = variants of: B1; assay: kcat; higher = faster cleavage; RNA array
Procedure, shortened: (§1)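 In situ transcription by E. coli RNA polymerase produced barcoded ribozyme variants on sequenced MiSeq chips, and a hybridised Cy3 probe tracked them at 37 °C. Glucosamine-6-phosphate was flowed in at 40 μM to 10 mM in HEPES/KCl/Mg(OAc)2 buffer. kcat and KM were taken from weighted Michaelis–Menten fits of kobs values from exponential decay fits.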

glucosamine-6-phosphate [2] = variants of: B1; assay: self-cleavage kobs at 40 uM GlcN6P; higher = faster cleavage; RNA array
Procedure, shortened: as §1

glucosamine-6-phosphate [3] = variants of: B1; assay: self-cleavage kobs at 160 uM GlcN6P; higher = faster cleavage; RNA array
Procedure, shortened: as §1

glucosamine-6-phosphate [4] = variants of: B1; assay: self-cleavage kobs at 640 uM GlcN6P; higher = faster cleavage; RNA array
Procedure, shortened: as §1

glucosamine-6-phosphate [5] = variants of: B1; assay: self-cleavage kobs at 2500 uM GlcN6P; higher = faster cleavage; RNA array
Procedure, shortened: as §1

glucosamine-6-phosphate [6] = variants of: B1; assay: self-cleavage kobs at 10000 uM GlcN6P; higher = faster cleavage; RNA array
Procedure, shortened: as §1

glucosamine-6-phosphate [7] = variants of: B1; assay: KM; higher = weaker cofactor use; RNA array
Procedure, shortened: as §1

Row | Variant | kcat (glucosamine-6-phosphate [1]) [s⁻¹] | self-cleavage kobs at 40 uM GlcN6P (glucosamine-6-phosphate [2]) [s⁻¹] | self-cleavage kobs at 160 uM GlcN6P (glucosamine-6-phosphate [3]) [s⁻¹] | self-cleavage kobs at 640 uM GlcN6P (glucosamine-6-phosphate [4]) [s⁻¹] | self-cleavage kobs at 2500 uM GlcN6P (glucosamine-6-phosphate [5]) [s⁻¹] | self-cleavage kobs at 10000 uM GlcN6P (glucosamine-6-phosphate [6]) [s⁻¹] | KM (glucosamine-6-phosphate [7]) [µM]
1 | G29C A39U | 0.00205 ± 0.00072 | 5.54e-05 ± 1.3e-05 | 6.75e-05 ± 1.6e-05 | 0.000323 ± 6.3e-05 | 0.000753 ± 0.00014 | 0.00153 ± 0.00022 | –
2 | G29A G40A | 0.000354 ± 5.1e-05 | – | 3.78e-05 ± 1.7e-05 | 0.000154 ± 2.9e-05 | 0.000222 ± 3.7e-05 | 0.000353 ± 7.2e-05 | 1090 ± 350
3 | G29A G40U | 0.000248 ± 5.6e-05 | – | – | 8.95e-05 ± 1.9e-05 | 0.000207 ± 2.8e-05 | 0.000182 ± 4e-05 | –
4 | U30A C50U | 1.13e-05 ± 4.2e-06 | – | – | – | – | – | –
5 | C16U U56C | 0.00495 ± 0.00037 | 4.49e-05 ± 7.9e-06 | 0.00024 ± 8.3e-05 | 0.000693 ± 0.00011 | 0.00199 ± 0.00037 | 0.00349 ± 0.00036 | 4050 ± 460
6 | G29U U54A U65A | 0.000347 ± 8.3e-05 | – | 8.02e-05 ± 2.9e-05 | 0.000149 ± 2.1e-05 | 0.000241 ± 3.4e-05 | 0.000456 ± 0.00011 | –
7 | U30A U47G | 0.000918 ± 0.00028 | 7.81e-05 ± 2.4e-05 | – | 0.000406 ± 8.6e-05 | 0.000481 ± 0.00024 | 0.00109 ± 0.00021 | –
8 | G29U G66A | 0.0034 ± 0.00083 | 8.79e-05 ± 1.5e-05 | 0.000716 ± 0.0002 | 0.000732 ± 0.00016 | 0.00168 ± 0.00038 | 0.00316 ± 0.00039 | 1710 ± 700
9 | G29U G66U | 0.000182 ± 1.7e-05 | – | – | 5.65e-05 ± 1.1e-05 | 0.000151 ± 2.6e-05 | 0.000156 ± 1.6e-05 | 1300 ± 360
10 | C16U U46G | 0.00589 ± 0.00074 | 0.00014 ± 1.3e-05 | 0.000489 ± 8.8e-05 | 0.00131 ± 0.00016 | 0.00323 ± 0.0005 | 0.00531 ± 0.00055 | 1810 ± 320
11 | C16U G32A A33G C58U C70G | 3.69e-05 ± 8.5e-06 | – | – | – | – | – | –
12 | U30A G41A | 0.000441 ± 3.4e-05 | – | – | 3.92e-05 ± 1.2e-05 | 0.000127 ± 2.3e-05 | 0.000265 ± 5.7e-05 | 6390 ± 730
13 | U30A G41U | 0.000138 ± 2.1e-05 | – | – | 6.73e-05 ± 9.9e-06 | 0.000147 ± 1.8e-05 | 0.000117 ± 1.4e-05 | 608 ± 300
14 | U30C C58A | 2.21e-05 ± 6e-06 | – | – | – | 2.92e-05 ± 1.1e-05 | – | –
15 | C16U A52U | 0.00041 ± 1.4e-05 | < 1e-05 | – | 4.82e-05 ± 1.2e-05 | 0.000132 ± 2.2e-05 | 0.000274 ± 2.9e-05 | 5030 ± 320
16 | C16U A52C | 1.88e-05 ± 3.1e-06 | – | – | – | – | – | –

Row | Variant | kcat (glucosamine-6-phosphate [1]) [s⁻¹] | self-cleavage kobs at 40 uM GlcN6P (glucosamine-6-phosphate [2]) [s⁻¹] | self-cleavage kobs at 160 uM GlcN6P (glucosamine-6-phosphate [3]) [s⁻¹] | self-cleavage kobs at 640 uM GlcN6P (glucosamine-6-phosphate [4]) [s⁻¹] | self-cleavage kobs at 2500 uM GlcN6P (glucosamine-6-phosphate [5]) [s⁻¹] | self-cleavage kobs at 10000 uM GlcN6P (glucosamine-6-phosphate [6]) [s⁻¹] | KM (glucosamine-6-phosphate [7]) [µM]
17 | C16U A52G | 0.00224 ± 0.00092 | 3.86e-05 ± 9e-06 | 9.03e-05 ± 2.1e-05 | 0.000237 ± 5.8e-05 | 0.000576 ± 7.9e-05 | 0.0016 ± 0.00017 | –
18 | G29C G66C | 2.22e-05 ± 9.6e-06 | – | – | – | – | – | –
19 | G29C U46C | 9.55e-05 ± 4.5e-06 | – | – | 5.09e-05 ± 1.5e-05 | 8.67e-05 ± 2.2e-05 | 8.84e-05 ± 1.4e-05 | 535 ± 120
20 | G29C U46G | 0.000315 ± 9.7e-05 | – | – | 7.38e-05 ± 2.1e-05 | 0.000285 ± 7.3e-05 | 0.000234 ± 7.5e-05 | –
21 | U30C | 0.000469 ± 2.4e-05 | – | 4.18e-05 ± 1.9e-06 | 0.000113 ± 2e-06 | 0.000759 ± 0.00027 | 0.000395 ± 6.5e-06 | 1950 ± 180
22 | U30A | 0.0142 ± 0.0014 | 0.000227 ± 5e-06 | 0.000758 ± 6.8e-05 | 0.00244 ± 0.00012 | 0.00727 ± 0.00029 | 0.0114 ± 0.00039 | 2550 ± 310
23 | U30A G40U | 0.000556 ± 6.4e-05 | – | – | 0.000117 ± 3e-05 | 0.000367 ± 9e-05 | 0.000446 ± 6.3e-05 | 2160 ± 580
24 | U30C A42G | 0.000456 ± 7.6e-05 | – | 7.93e-05 ± 2.8e-05 | 0.00012 ± 3.3e-05 | 0.000368 ± 9.6e-05 | 0.0004 ± 5.9e-05 | 1310 ± 520
25 | G29U A53U | 0.00357 ± 0.00055 | 8.45e-05 ± 1e-05 | 0.000275 ± 4.9e-05 | 0.00114 ± 0.00013 | 0.00252 ± 0.00027 | 0.00266 ± 0.00038 | 1600 ± 360
26 | U30A C58U | 1.78e-05 ± 3.6e-06 | – | – | – | – | – | –
27 | U30A C71A | 0.00089 ± 0.00018 | 5.08e-05 ± 1.3e-05 | – | 0.000632 ± 0.0002 | 0.000946 ± 0.00022 | 0.00072 ± 0.00016 | 603 ± 230
28 | C16U G59U | 4.21e-05 ± 7.7e-06 | – | – | – | 4.99e-05 ± 1.2e-05 | 3.73e-05 ± 7.2e-06 | –
29 | G29C G41U | 5.56e-05 ± 4e-07 | – | – | – | 3.01e-05 ± 1.1e-05 | 4.6e-05 ± 7.7e-06 | 2090 ± 57
30 | C16U U31C | 0.00735 ± 0.00094 | 0.000149 ± 2.1e-05 | 0.000588 ± 0.00011 | 0.00161 ± 0.00048 | 0.0036 ± 0.00062 | 0.00694 ± 0.0011 | 1980 ± 350
31 | G29A A39C | 0.000943 ± 4.4e-05 | 2.46e-05 ± 8.5e-06 | 7.61e-05 ± 1.5e-05 | 0.000243 ± 3.2e-05 | 0.000521 ± 8.6e-05 | 0.000813 ± 9.1e-05 | 1820 ± 150
